Bounds are passed on as bounds.

The assay has as its target T1, HLA-B*08:01 (human).
T1 construct: MHC monomer first loaded with a UV-sensitive peptide that is cleaved by UV light and exchanged for the test peptide
Description: UV peptide exchange ELISA. Summed up:
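Peptide–MHC complexes formed by UV-mediated exchange of a photocleavable ligand; exchange yield assessed by ELISA on streptavidin-coated plates, samples diluted 100-fold. Bound complexes detected with HRP anti-β2m and TMB at 450 nm against HLA-A*02:01 monomer standards (15–500 ng/ml).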
(ELISA stands for enzyme-linked immunosorbent assay.)

NPLIEIISI [NPLIEIISI (SEQ ID NO: 215)] yielded a peptide exchange yield of 20 to 50%.
Under EARPPSPAV [EARPPSPAV (SEQ ID NO: 216)] stands 20 to 50%.
To STLKKSLEI [STLKKSLEI (SEQ ID NO: 236)] belongs 20 to 50%; to DAPRHRLL [DAPRHRLL (SEQ ID NO: 214)], 20 to 50%; to DIYEVAVSL [DIYEVAVSL (SEQ ID NO: 226)], 50 to 75%.
Regarding DTHTNTYYL [DTHTNTYYL (SEQ ID NO: 229)], the peptide exchange yield fell in the range of 20 to 50%.
To DIKKTNESL [DIKKTNESL (SEQ ID NO: 23)] belongs 20 to 50%; to IPLAIARL [IPLAIARL (SEQ ID NO: 238)], 50 to 75%.
In turn, DVYFHHVL [DVYFHHVL (SEQ ID NO: 230)] had a peptide exchange yield of 20 to 50%.
To DLVLKRCL [DLVLKRCL (SEQ ID NO: 24)] belongs no less than 75%; to QQIDRVVEV [QQIDRVVEV (SEQ ID NO: 249)], 20 to 50%; to LPPPQPLSL [LPPPQPLSL (SEQ ID NO: 208)], 20 to 50%.
Consider GEKLLRPSL [GEKLLRPSL (SEQ ID NO: 231)], for which the peptide exchange yield lay in the range of 20 to 50%.
To DNHPRLVTL [DNHPRLVTL (SEQ ID NO: 218)] belongs 50 to 75%; to EGVPPGTVL [EGVPPGTVL (SEQ ID NO: 243)], 50 to 75%; to LPYPPQKVV [LPYPPQKVV (SEQ ID NO: 224)], 20 to 50%.
Under SPNSLVTIL [SPNSLVTIL (SEQ ID NO: 235)] stands 50 to 75%; under SLKEELLSL [SLKEELLSL (SEQ ID NO: 221)], 50 to 75%.
To LAVRHLSL [LAVRHLSL (SEQ ID NO: 220)] belongs 20 to 50%; to TPEPSVHAL [TPEPSVHAL (SEQ ID NO: 247)], 20 to 50%.
SRFGKFVQL [SRFGKFVQL (SEQ ID NO: 209)] showed a peptide exchange yield of 20 to 50%.
VFRVGISF [VFRVGISF (SEQ ID NO: 234)] gave a peptide exchange yield of 20 to 50%.
Under DVKLVFVM [DVKLVFVM (SEQ ID NO: 233)] stands 20 to 50%; under QPNTHQLL [QPNTHQLL (SEQ ID NO: 210)], 20 to 50%.
The molecule MEFPNKFNTL [MEFPNKFNTL (SEQ ID NO: 206)] displayed a peptide exchange yield of 20 to 50%.
Under EVRLKPIL [EVRLKPIL (SEQ ID NO: 22)] stands 20 to 50%.
Under NAYEAPSI [NAYEAPSI (SEQ ID NO: 241)] stands 20 to 50%; under RLLQKSKEL [RLLQKSKEL (SEQ ID NO: 246)], 20 to 50%; under KVIDRKVEL [KVIDRKVEL (SEQ ID NO: 240)], 20 to 50%.
Under SRFPGMSVL [SRFPGMSVL (SEQ ID NO: 227)] stands 20 to 50%; under HALPPYITVL [HALPPYITVL (SEQ ID NO: 244)], 20 to 50%.
Regarding RILKRFLAC [RILKRFLAC (SEQ ID NO: 21)], the peptide exchange yield lay in the range of 50 to 75%.
For the molecule KLYIHRVTL [KLYIHRVTL (SEQ ID NO: 232)], the peptide exchange yield lay within 20 to 50%.
Under AQKAELIAL [AQKAELIAL (SEQ ID NO: 222)] stands 20 to 50%; under DVISKGVSL [DVISKGVSL (SEQ ID NO: 211)], 20 to 50%.
With MPKRAHWGA [MPKRAHWGA (SEQ ID NO: 225)], the peptide exchange yield was in the range of 50 to 75%.
In turn, LRKRKSPE [LRKRKSPE (SEQ ID NO: 207)] displayed a peptide exchange yield of 20 to 50%.
To VRNPKILIL [VRNPKILIL (SEQ ID NO: 219)] belongs 20 to 50%.
In the case of EEYKFPSL [EEYKFPSL (SEQ ID NO: 212)], the peptide exchange yield lay within 20 to 50%.
On to YMQYGFLSM [YMQYGFLSM (SEQ ID NO: 205)], for which the peptide exchange yield was in the range of 20 to 50%.
Take SEPVMRVTL [SEPVMRVTL (SEQ ID NO: 239)]: the peptide exchange yield is 20 to 50%.
To TLRAYVLAL [TLRAYVLAL (SEQ ID NO: 228)] belongs 50 to 75%.
To FPSLFINQF [FPSLFINQF (SEQ ID NO: 213)] belongs 20 to 50%; to KPQSLQLVL [KPQSLQLVL (SEQ ID NO: 242)], 20 to 50%; to GPRGPSSGHPL [GPRGPSSGHPL (SEQ ID NO: 245)], 20 to 50%.
To DVSARKLRV [DVSARKLRV (SEQ ID NO: 223)] belongs 20 to 50%; to SEVNKHETAL [SEVNKHETAL (SEQ ID NO: 248)], 20 to 50%; to LPLDSRYVTL [LPLDSRYVTL (SEQ ID NO: 237)], 50 to 75%.
ETIKGHSVRL [ETIKGHSVRL (SEQ ID NO: 217)] showed a peptide exchange yield of 20 to 50%.

The values are drawn from patent US20250145684A1 (IMMATICS BIOTECHNOLOGIES, published 2025).
